{"source": "patent US20060251644A1", "about": "(TANOX, published 2006)", "binders": {"B1": {"name": "humanized Fab clone 136 (Fab, V domains shown)", "VH": "QVQLVQSGAEVMKPGSSVKVSCKASGYTFSMYWLEWVRQAPGHGLEWMGEISPGTFTTNYNEKFKARVTFTADTSTSTAYMELSSLRSEDTAVYYCARFSHFSGSNYDYFDYWGQGTLVTVSS", "VL": "EIVMTQSPATLSVSPGERATLSCRASQSIGTNIHWYQQKPGQAPRLLIYYASESISGIPARFSGSGSGTEFTLTISSLQSEDFAVYYCQQSDSWPTTFGGGTKVEIK", "notes": "Retains 5 murine heavy chain framework residues; 100% human light chain framework; also called Clone ID #136; Humanized clone 136"}}, "molecular_target": "T1, recombinant human IgE, SE44 (human, UniProt P01854-1 1-428)", "T1 construct": "also called monoclonal human IgE (SE44); biotinylated SE44", "T1 sequence (P01854 other isoform, or with tags, fused parts or gaps)": "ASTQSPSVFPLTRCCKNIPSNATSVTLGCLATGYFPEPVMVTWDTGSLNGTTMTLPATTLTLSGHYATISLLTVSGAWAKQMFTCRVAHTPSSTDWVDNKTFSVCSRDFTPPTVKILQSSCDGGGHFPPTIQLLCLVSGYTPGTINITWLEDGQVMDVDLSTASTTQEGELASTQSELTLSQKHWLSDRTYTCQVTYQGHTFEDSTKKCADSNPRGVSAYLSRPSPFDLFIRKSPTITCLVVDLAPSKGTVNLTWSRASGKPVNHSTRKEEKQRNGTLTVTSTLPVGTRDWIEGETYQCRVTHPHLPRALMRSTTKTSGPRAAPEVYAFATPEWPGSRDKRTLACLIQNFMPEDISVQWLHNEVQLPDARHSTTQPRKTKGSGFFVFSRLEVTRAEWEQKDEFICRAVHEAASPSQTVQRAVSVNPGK", "test": "ELISA titration on plate-coated SE44 (human IgE); Fab detected with biotin-sheep anti-human Fd and Neutra-avidin-AP (Example 6)", "method": "Coating solution was removed and the plates were blocked with 200 uL/well 3% BSA/PBS for 1 hour at 37° C.\nThe plates were washed 4× with PBS/0.1% TWEEN® (PBST). 50 uL/well Fab (from 15 mL periplasmic prep) was added starting with a dilution of 1:2 and diluting 3 fold serially in 0.5% BSA/PBS and 0.05% TWEEN®20. Plates were incubated for 2 hours at room temperature.", "data": [{"binder": "B1", "values": [{"measurement": "EC50 (read off the curve)", "value": "~0.03", "unit": "µg/mL"}]}]}
